“And” between values parts separate entries of the source, which are not always exact repeats. Identical values can stand only once. Each block holds one compound with its values, some of them ahead of it.
Key:
Type in all cases: physicochemical
[1] = Morphological characterization of porous films by SEM (mean pore diameter, porosity)
Protocol: The morphology of the porous films (cryogenically fractured surfaces) was observed by scanning electron microscopy (SEM) using a JEOL JSM-6300 microscope at an accelerating voltage of 5 kV. The SEM samples were Au-sputtered prior to observation. The mean pore diameter (n=100 small pores or 50 large pores) and porosity of the observed morphologies were analyzed using the Sigma Scan Pro software, and statistics were calculated using SPSS 10 software. Statistical significance was determined based on ANOVA (Tukey-Kramer). The area occupied by the pores was calculated for each SEM fractograph using Sigma Scan Pro software in order to evaluate the porosity of the samples. Porosity was determined as the area occupied by the pores divided by the total area.

[2] = Encapsulation efficiency of the loaded agent in the films
[3] = In vitro drug release from films in PBS at 37° C. (HPLC); settings: for time at which the drug was almost fully released: antibiotic-loaded 50:50 PDLGA films, O:A 6:1, 2% drug
Protocol: Small films of 1.5 cm by 0.5 cm, were immersed in phosphate buffered saline (PBS) at 37° C. for 70 days in order to determine the various drug release kinetics therefrom in four repetitions. The release studies were conducted in closed glass tubes containing 3.0 ml PBS medium. The medium was removed completely at various time points, and at each sampling time fresh medium was introduced. The medium's drug concentration was determined using Jasco High Performance Liquid Chromatography (HPLC) with a UV 2075 plus detector and a reverse phase column kept at 25° C.

[4] = In vitro HRP release from porous films in PBS at 37° C. (micro BCA)
Protocol: Small 1.5 cm by 2.0 cm films (four samples) were immersed in phosphate-buffered saline (PBS) at 37° C. for 28 days in order to determine the HRP release kinetics from these structures. The release studies were conducted in closed glass tubes containing 2.0 ml PBS medium. The medium was removed (completely) periodically, at each sampling time, and fresh medium was introduced. Sampling was carried out at 0.5, 1, 2, 3, 7, 14, 21 and 28 days.
The HRP concentration of each medium sample was determined using the micro BCA assay method, by measuring absorbance at 562 nm, using a SpectraMax 340 PC^384 plate reader spectrophotometer. Cumulative HRP release profiles were determined relative to the initial amount of HRP in the composite fibers (HRP released during the incubation period+the residue remaining in the fibers). Four repetitions were performed for each sample, and the results are presented as means±one standard deviation.

[5] = drug-loaded 50:50 PDLGA 17.5% w/v film, no surfactant, 28 000 rpm
[6] = drug-loaded film, BSA (1%), 14 000 rpm
[7] = drug-loaded film, BSA (1%), 28 000 rpm
[8] = drug-loaded film, no surfactant, 14 000 rpm
[9] = drug-loaded film, BSA (5%), 28 000 rpm
[10] = drug-loaded film, BSA (5%), 28 000 rpm, listed as paclitaxel
[11] = 5% w/v BSA film versus film with no surfactant, 28000 rpm
[12] = as reference formulation A but 0.5% w/w HRP
[13] = as reference formulation A but 15% w/v polymer
[14] = as reference formulation A but 25% w/v polymer
[15] = as reference formulation A but 75/25 PDLGA
[16] = as reference formulation A but O:A 2:1
[17] = as reference formulation A but O:A 8:1
[18] = as reference formulation A but polymer initial MW 50 kDa
[19] = as reference formulation A but polymer initial MW 185 kDa
[20] = HRP film, reference formulation A (1.0% w/w HRP, 17.5% w/v, O:A 4:1, 50/50, 83 kDa)
[21] = as reference formulation A but 2.0% w/w HRP
[22] = as reference formulation A but 20% w/v polymer
[23] = as reference formulation A but O:A 6:1

Compound: CC(C)(O/N=C(\C(=O)N[C@@H]1C(=O)N2C(C(=O)[O-])=C(C[n+]3ccccc3)CS[C@H]12)c1csc(N)n1)C(=O)O [Ceftazidime hydrate, ceftazidime hydrate]
Mean pore diameter [1, 5]: 1.1 ± 0.4 μm
Porosity [1, 5]: 77.6 ± 2.2%
Mean pore diameter [1, 6]: 1.5 ± 0.5 μm
Porosity [1, 6]: 75.4 ± 0.5%
Mean pore diameter [1, 7]: 0.7 ± 0.2 μm
Porosity [1, 7]: 75.6 ± 0.5%
Mean pore diameter [1, 8]: 1.8 ± 0.7 μm
Porosity [1, 8]: 80.5 ± 3.0%
Encapsulation efficiency [2, 5]: 37.0 ± 1.9%
Encapsulation efficiency [2, 6]: 58.4 ± 2.3%
Encapsulation efficiency [2, 7]: 50.7 ± 0.5%
Encapsulation efficiency [2, 8]: 41.7 ± 1.6%
time at which the drug was almost fully released [3]: ≤ 3 days

Compound: CC(=O)O.NCc1ccc(S(N)(=O)=O)cc1 [Mafenide acetate, 4-Aminomethylbenzenesulfonamide acetate salt]
Mean pore diameter [1, 5]: 1.1 ± 0.3 μm
Porosity [1, 5]: 88.1 ± 1.2%
Mean pore diameter [1, 6]: 1.9 ± 0.5 μm
Porosity [1, 6]: 83.7 ± 2.4%
Mean pore diameter [1, 7]: 0.8 ± 0.2 μm
Porosity [1, 7]: 81.7 ± 2.5%
Mean pore diameter [1, 8]: 2.2 ± 0.9 μm
Porosity [1, 8]: 81.9 ± 2.6%
Encapsulation efficiency [2, 5]: 71.3 ± 0.5%
Encapsulation efficiency [2, 6]: 74.6 ± 4.2%
Encapsulation efficiency [2, 7]: 78.1 ± 2.1%
Encapsulation efficiency [2, 8]: 69.6 ± 1.0%
time at which the drug was almost fully released [3]: 21 days

Compound: HRP: Horseradish peroxidase, 44 kDa; served as a surfactant and a protein-type biomolecule model
HRP burst release [4, 12]: 37%
HRP burst release ([4]; as reference formulation A but 2% w/w HRP): 74%
HRP burst release [4, 13]: 65%
HRP burst release [4, 14]: 47%
HRP burst release rate, 75/25 PDLGA compared to 50/50 PDLGA films [4, 15]: little difference in the burst release rates
HRP burst release [4, 16]: 58%
HRP burst release [4, 17]: 48%
HRP burst release [4, 18]: 73%
HRP burst release [4, 19]: 42%
HRP burst release ([4]; reference formulation A: 50/50 PDLGA 83 kDa, 17.5% w/v polymer, 1% w/w HRP, O:A 4:1): 57%
Mean large pore diameter [1, 20]: 17.1 ± 2.7 μm
Mean small pore diameter [1, 20]: 4.3 ± 0.8 μm
Porosity [1, 20]: 86.9 ± 2.6%
Mean large pore diameter [1, 12]: 16.0 ± 1.6 μm
Mean small pore diameter [1, 12]: 4.5 ± 1.3 μm
Porosity [1, 12]: 88.6 ± 1.4%
Mean large pore diameter [1, 21]: 16.0 ± 1.4 μm
Mean small pore diameter [1, 21]: 3.9 ± 0.4 μm
Porosity [1, 21]: 85.4 ± 2.2%
Mean small pore diameter [1, 13]: 5.5 μm and 5.5 ± 1.1 μm
Porosity [1, 13]: 88.2 ± 2.9%
Mean large pore diameter [1, 22]: 16.1 ± 2.3 μm
Mean small pore diameter [1, 22]: 3.2 ± 0.5 μm
Porosity [1, 22]: 85.8 ± 2.9%
Mean large pore diameter [1, 14]: 17.1 ± 1.9 μm
Mean small pore diameter [1, 14]: 1.5 μm and 1.5 ± 0.2 μm
Porosity [1, 14]: 82.2 ± 3.3%
Mean large pore diameter [1, 15]: 16.6 ± 3.6 μm
Mean small pore diameter [1, 15]: 5.9 ± 0.8 μm
Porosity [1, 15]: 89.2 ± 0.8%
Mean large pore diameter [1, 16]: 17.3 ± 3.3 μm
Mean small pore diameter [1, 16]: 4.7 μm and 4.7 ± 1.0 μm
Porosity [1, 16]: 92.5% and 92.5 ± 1.0%
Mean large pore diameter [1, 23]: 18.0 ± 3.8 μm
Mean small pore diameter [1, 23]: 3.0 ± 0.6 μm
Porosity [1, 23]: 82.1 ± 1.6%
Mean large pore diameter [1, 17]: 17.2 ± 2.1 μm
Mean small pore diameter [1, 17]: 2.3 μm and 2.3 ± 0.4 μm
Porosity [1, 17]: 76.7% and 76.7 ± 2.5%
Mean small pore diameter [1, 18]: 7.1 μm and 7.1 ± 1.4 μm
Porosity [1, 18]: 87.7 ± 2.0%
Mean large pore diameter [1, 19]: 16.4 ± 2.8 μm
Mean small pore diameter [1, 19]: 2.5 μm and 2.5 ± 0.6 μm
Porosity [1, 19]: 85.3 ± 1.2%
Encapsulation efficiency ([2]; HRP film, 0.5 w/w HRP): 89%
Encapsulation efficiency ([2]; HRP film, 1 w/w HRP, 17.5% w/v polymer (reference formulation A)): 87%
Encapsulation efficiency ([2]; HRP film, 2 w/w HRP): 86%
Encapsulation efficiency ([2]; HRP film, 15.5% w/v polymer): 90%
Encapsulation efficiency ([2]; HRP film, 25% w/v polymer): 85%

Further lines, results first:

Mean pore diameter [1, 5]: 2.6 ± 0.8 μm
Porosity [1, 5]: 81.5 ± 3.8%
Mean pore diameter [1, 9]: 0.6 ± 0.1 μm
Porosity [1, 9]: 74.8 ± 3.2%
Mean pore diameter [1, 10]: 0.6 μm
Encapsulation efficiency [2, 5]: 52.8 ± 0.6%
Encapsulation efficiency ([2]; drug-loaded 50:50 PDLGA 17.5% w/v film, no surfactant, 28 000 rpm, listed as paclitaxel): 53%
Encapsulation efficiency [2, 9]: 35.6 ± 2.9%
Encapsulation efficiency [2, 10]: 35%
effect of BSA (fine nanostructure) on burst effect [3, 11]: did not significantly affect
effect of BSA (fine nanostructure) on release rate [3, 11]: only a slight increase
Compound: CC(=O)O[C@H]1C(=O)[C@@]2(C)[C@H]([C@H](OC(=O)c3ccccc3)[C@]3(O)C[C@H](OC(=O)[C@H](O)[C@@H](NC(=O)c4ccccc4)c4ccccc4)C(C)=C1C3(C)C)[C@]1(OC(C)=O)CO[C@@H]1C[C@@H]2O [Paclitaxel]

Mean pore diameter ± SD ([1]; film from reference formulation B with 5% of the named surfactant, 28000 rpm for 120 seconds): 1.5 μm and 1.5 ± 0.4 μm
Compound: Sorbitan monooleate [Span 80]

— patent publication US8697117B2, “Drug-eluting films” (Ramot at Tel-Aviv University Ltd., priority 2010, dated 2014)
